Assay [1] deals with T1, recombinant MAGEA3 protein (human, UniProt P43357 1-314).
T1 construct: In Experiment 4C MAGEA3 was also expressed in transiently transfected HEK293T cells (fixed and permeabilized); also called His-tagged MAGEA3; CT1.3
Description: ELISA, recombinant MAGEA3 coated to plastic, serial dilutions of antibody, OD 450 nm. Here is the method: FIG. 4 EC50 determination of recombinant human monoclonal antibodies to MAGEA3. MAGEA3-ELISA was carried out using recombinant MAGEA3 coated to plastic and serial dilutions of the human monoclonal antibodies 21B4, 54B4, 94G11, 9A5, 31H10, 43B10, 2G4, 20C10, 26C9 and 4D6 (A-J). EC50 values are indicated in each figure.
The EC₅₀, the concentration at which half-maximal binding of the antibody to its antigen is observed was determined in MAGEA3 ELISA using serial dilutions of the human monoclonal antibodies 21B4, 54B4, 94G11, 9A5, 31H10, 43B10, 2G4, 20C10, 26C9 and 4D6. EC50 values were determined mathematically by derivation of the best-fit line using GraphPad software.

The target in another assay is T2, recombinant MAGEA1 (UniProt P43355 1-309, limits assumed).
T2 construct: also called CT1.1
T2 sequence (looked up): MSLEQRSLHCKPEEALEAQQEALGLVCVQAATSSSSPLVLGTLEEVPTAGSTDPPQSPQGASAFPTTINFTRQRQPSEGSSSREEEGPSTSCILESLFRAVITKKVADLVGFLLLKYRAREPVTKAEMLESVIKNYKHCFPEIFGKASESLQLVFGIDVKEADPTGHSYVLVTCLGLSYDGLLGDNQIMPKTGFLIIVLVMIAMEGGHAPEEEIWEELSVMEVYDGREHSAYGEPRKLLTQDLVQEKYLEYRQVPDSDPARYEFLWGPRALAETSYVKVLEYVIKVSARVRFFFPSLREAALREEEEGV
Briefly: ELISA on coated recombinant MAGEA proteins, serial dilutions of antibody (concentrations not printed on the sheet). Here is the method:
(§1) Recombinantly expressed MAGEA3, MAGEA1, MAGEA4, MAGEA10 were coated on ELISA plates and binding of MAGEA3 antibodies 21B4, 94G11, 2G4, 9A5 and 54B4 to these proteins was tested. The results are depicted in FIG. 3B).

The target in a further assay is T3, recombinant MAGEA4 (UniProt P43358 1-317, limits assumed).
T3 construct: also called CT1.4
T3 sequence (looked up): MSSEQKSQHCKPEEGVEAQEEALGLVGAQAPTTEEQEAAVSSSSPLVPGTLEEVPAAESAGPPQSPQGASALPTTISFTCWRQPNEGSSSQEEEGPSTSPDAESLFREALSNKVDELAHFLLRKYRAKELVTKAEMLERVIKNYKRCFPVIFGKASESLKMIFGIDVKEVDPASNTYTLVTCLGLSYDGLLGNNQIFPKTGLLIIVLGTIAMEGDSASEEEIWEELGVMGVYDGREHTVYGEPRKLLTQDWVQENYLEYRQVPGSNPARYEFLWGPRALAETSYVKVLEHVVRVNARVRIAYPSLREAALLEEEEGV
Described as above. On the procedure: as §1

In the next assay the target is T4, recombinant MAGEA10 (UniProt P43363 1-369, limits assumed).
T4 construct: also called CT1.10
Described as above. Here is the method:
as §1

The next assay concerns the target T5, MAGEA3 peptide No 7.
T5 construct: member of the group m18; also called 20mer peptide, amino acids 61-80 of MAGEA3
T5 peptide: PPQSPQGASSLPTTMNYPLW
Briefly: ELISA on plates coated with overlapping 20mer MAGEA3 peptides; antibody at 1 µg/ml; HRP goat anti-human IgG Fc-gamma. On the procedure: (§2) 20mer peptides spanning the entire MAGEA3 protein with 10 aa overlaps shared by each adjacent peptide (Peptides&Elephants, Nuthetal, Germany) were used to coat Maxisorp ELISA plates (Nunc, Rochester, N.Y.). As control a 20mer peptide representing amino acids 40-21 from the NY-ESO-1 protein was used (rev). The numbering of amino acids of MAGEA3 is based on SEQ ID No.: 101.
(§3) Human recombinant antibody was used at a concentration of 1 μg/ml with the exception of antibody 9A5 which was used at […]. Bound human antibody was detected using horseradish peroxidase-conjugated goat anti-human IgG Fc-gamma specific antibodies (Jackson ImmunoResearch, Europe Ltd., Cambridgeshire, UK).

The next assay addresses T6, MAGEA3 peptide No 8.
T6 construct: member of the group m18; also called 20mer peptide, amino acids 71-90 of MAGEA3
T6 peptide: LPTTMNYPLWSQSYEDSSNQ
Described as above. Here is the method:
as §2, §3

The target in the next assay is T7, MAGEA3 peptide No 24.
T7 construct: member of the group m18; also called 20mer peptide, amino acids 231-250 of MAGEA3
T7 peptide: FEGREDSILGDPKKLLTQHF
The assay is described as above. Here is the method: as §2, §3

In a further assay the target is T8, MAGEA6 (UniProt P43360 1-314, limits assumed).
T8 construct: whole, on cells; Intracellular antigen: the transfected cells were fixed and permeabilized before staining; also called CT1.6
Briefly: flow cytometry on fixed, permeabilized HEK293T cells transiently transfected with MAGEA6; PE-labeled anti-human antibody. On the procedure: HEK293T cells transiently transfected with MAGEA3 or MAGE A6 were fixed and permeabilized and incubated with human-derived antibodies. Binding of human-derived antibodies to the cells was detected by flow cytometry using PE-labeled anti-human antibodies. […] Filled histograms show binding of 21B4, 31H10, 94G11 and 54B4 to transiently transfected HEK 293 cells. Only a proportion of the cells was transfected resulting in a population expressing the transgene and in a population not expressing the transgene. […] The results are depicted in FIG. 3C).

T8 sequence (P43360 whole entry): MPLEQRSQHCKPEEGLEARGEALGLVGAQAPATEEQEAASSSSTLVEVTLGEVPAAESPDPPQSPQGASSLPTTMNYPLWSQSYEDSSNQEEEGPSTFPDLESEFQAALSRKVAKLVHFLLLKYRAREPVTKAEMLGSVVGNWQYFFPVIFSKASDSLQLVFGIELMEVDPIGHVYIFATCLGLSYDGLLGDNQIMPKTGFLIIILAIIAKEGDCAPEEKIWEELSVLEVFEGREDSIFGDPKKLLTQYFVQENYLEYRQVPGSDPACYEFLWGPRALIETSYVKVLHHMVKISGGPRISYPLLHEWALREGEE
T4 sequence (P43363 whole entry): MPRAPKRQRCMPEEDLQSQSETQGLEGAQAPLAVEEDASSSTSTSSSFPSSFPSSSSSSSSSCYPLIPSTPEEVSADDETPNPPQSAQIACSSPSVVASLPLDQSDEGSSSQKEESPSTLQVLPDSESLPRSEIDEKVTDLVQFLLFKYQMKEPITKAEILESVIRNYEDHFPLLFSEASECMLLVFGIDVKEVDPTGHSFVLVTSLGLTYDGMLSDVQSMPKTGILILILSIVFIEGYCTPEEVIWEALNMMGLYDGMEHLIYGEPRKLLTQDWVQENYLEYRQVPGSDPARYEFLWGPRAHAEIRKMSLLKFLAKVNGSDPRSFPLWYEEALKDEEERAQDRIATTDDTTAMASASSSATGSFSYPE
T1 sequence (P43357 whole entry): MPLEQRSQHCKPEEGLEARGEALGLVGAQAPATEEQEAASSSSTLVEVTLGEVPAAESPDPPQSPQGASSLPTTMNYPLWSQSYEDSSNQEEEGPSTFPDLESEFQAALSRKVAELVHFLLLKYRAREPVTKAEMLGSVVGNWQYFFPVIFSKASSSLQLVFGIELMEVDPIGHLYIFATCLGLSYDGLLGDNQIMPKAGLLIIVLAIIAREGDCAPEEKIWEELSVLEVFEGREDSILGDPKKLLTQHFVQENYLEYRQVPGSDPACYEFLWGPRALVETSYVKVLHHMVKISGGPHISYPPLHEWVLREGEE

B1: 21B4 (antibody, V domains shown)
VH: QVQLVESGGGVVQPGRSLRLSCTASGFRFRSHGMHWVRQAPGKGLEWVAVISYDGNNKLYADSVKGRITISRDNSKNTLFLQMNNVRAEDTAVYYCASPYTSDWQYFQYWGQGTLVIVSS
VL: EIVMTQSPATLSVSPGERATFSCRASQNISTTLAWYQQKPGQAPRLLIYDTSTRATGIPARFSGSGSGTEFTLTISSLQSEDLAVYYCQQSNSWPLTFGGGTKVEIK
notes: Patient-derived; also called human-derived recombinant antibody 21B4; human monoclonal antibody 21B4
Turning to B1, the EC50 in assay [1] is 0.0313 nM. Besides, the binding result with recombinant MAGEA1 was “no binding”; with recombinant MAGEA4, “no binding”; in the assay with recombinant MAGEA10, “no binding”; with MAGEA3 peptide No 7, “binds”; with MAGEA3 peptide No 8, “binds”; with MAGEA3 peptide No 24, “binds”. The binding result with MAGEA6 is listed as “binds”.

The values above are taken from patent publication US20140093514A1 (UNIVERSITY OF ZURICH, published 2014).
